To fix the notation:
T1: human amylin 3(a) receptor (human calcitonin receptor co-expressed with RAMP-3) (human, UniProt P30988 25-474; O60896 24-148, limits assumed)
T1 sequence (looked up) 1: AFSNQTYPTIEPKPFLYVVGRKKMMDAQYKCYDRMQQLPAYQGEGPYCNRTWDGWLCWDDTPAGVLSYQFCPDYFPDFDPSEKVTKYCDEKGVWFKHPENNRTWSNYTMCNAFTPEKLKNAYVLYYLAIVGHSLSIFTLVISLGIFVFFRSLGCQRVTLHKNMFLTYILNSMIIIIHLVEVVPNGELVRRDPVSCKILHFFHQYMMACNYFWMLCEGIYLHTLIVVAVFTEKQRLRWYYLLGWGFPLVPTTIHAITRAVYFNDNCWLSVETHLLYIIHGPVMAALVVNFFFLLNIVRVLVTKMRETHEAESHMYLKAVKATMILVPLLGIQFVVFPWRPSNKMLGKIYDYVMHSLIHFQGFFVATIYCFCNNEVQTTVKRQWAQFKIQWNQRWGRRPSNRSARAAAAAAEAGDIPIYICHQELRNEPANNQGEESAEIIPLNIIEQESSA
T1 sequence (looked up) 2: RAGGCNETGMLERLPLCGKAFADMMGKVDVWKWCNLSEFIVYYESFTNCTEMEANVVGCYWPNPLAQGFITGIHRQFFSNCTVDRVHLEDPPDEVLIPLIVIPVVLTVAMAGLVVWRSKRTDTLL

B1: N^ε1-[2-[2-[2-[[(4S)-4-carboxy-4-(19-carboxynonadecanoylamino)butanoyl]amino]ethoxy]ethoxy]acetyl]-[Arg17,Pro21,Pro27]-h-amylin (peptide)
peptide: K([AEEA-γGlu-C20 diacid])CNTATCATQRLANFLRHSSPNFGAIPSSTNVGSNTY-NH2
modifications: disulfide 2-7; N-terminus assumed
SMILES: CC[C@H](C)[C@H](NC(=O)[C@H](C)NC(=O)CNC(=O)[C@H](Cc1ccccc1)NC(=O)[C@H](CC(N)=O)NC(=O)[C@@H]1CCCN1C(=O)[C@H](CO)NC(=O)[C@H](CO)NC(=O)[C@H](Cc1c[nH]cn1)NC(=O)[C@H](CCCNC(=N)N)NC(=O)[C@H](CC(C)C)NC(=O)[C@H](Cc1ccccc1)NC(=O)[C@H](CC(N)=O)NC(=O)[C@H](C)NC(=O)[C@H](CC(C)C)NC(=O)[C@H](CCCNC(=N)N)NC(=O)[C@H](CCC(N)=O)NC(=O)[C@@H](NC(=O)[C@H](C)NC(=O)[C@@H]1CSSC[C@H](NC(=O)[C@@H](N)CCCCNC(=O)COCCOCCNC(=O)CC[C@H](NC(=O)CCCCCCCCCCCCCCCCCCC(=O)O)C(=O)O)C(=O)N[C@@H](CC(N)=O)C(=O)N[C@@H]([C@@H](C)O)C(=O)N[C@@H](C)C(=O)N[C@@H]([C@@H](C)O)C(=O)N1)[C@@H](C)O)C(=O)N1CCC[C@H]1C(=O)N[C@@H](CO)C(=O)N[C@@H](CO)C(=O)N[C@H](C(=O)N[C@@H](CC(N)=O)C(=O)N[C@H](C(=O)NCC(=O)N[C@@H](CO)C(=O)N[C@@H](CC(N)=O)C(=O)N[C@H](C(=O)N[C@@H](Cc1ccc(O)cc1)C(N)=O)[C@@H](C)O)C(C)C)[C@@H](C)O
notes: also called compound 41
B2: N^ε-[(4S)-4-carboxy-4-(19-carboxynonadecanoylamino)butanoyl]Lys[Arg1,Arg17,Pro21,Pro27,His35]-h-amylin (peptide)
peptide: K([γGlu-C20 diacid])RCNTATCATQRLANFLRHSSPNFGAIPSSTNVGSHTY-NH2
modifications: disulfide 3-8; N-terminus assumed
SMILES: CC[C@H](C)[C@H](NC(=O)[C@H](C)NC(=O)CNC(=O)[C@H](Cc1ccccc1)NC(=O)[C@H](CC(N)=O)NC(=O)[C@@H]1CCCN1C(=O)[C@H](CO)NC(=O)[C@H](CO)NC(=O)[C@H](Cc1c[nH]cn1)NC(=O)[C@H](CCCNC(=N)N)NC(=O)[C@H](CC(C)C)NC(=O)[C@H](Cc1ccccc1)NC(=O)[C@H](CC(N)=O)NC(=O)[C@H](C)NC(=O)[C@H](CC(C)C)NC(=O)[C@H](CCCNC(=N)N)NC(=O)[C@H](CCC(N)=O)NC(=O)[C@@H](NC(=O)[C@H](C)NC(=O)[C@@H]1CSSC[C@H](NC(=O)[C@H](CCCNC(=N)N)NC(=O)[C@@H](N)CCCCNC(=O)CC[C@H](NC(=O)CCCCCCCCCCCCCCCCCCC(=O)O)C(=O)O)C(=O)N[C@@H](CC(N)=O)C(=O)N[C@@H]([C@@H](C)O)C(=O)N[C@@H](C)C(=O)N[C@@H]([C@@H](C)O)C(=O)N1)[C@@H](C)O)C(=O)N1CCC[C@H]1C(=O)N[C@@H](CO)C(=O)N[C@@H](CO)C(=O)N[C@H](C(=O)N[C@@H](CC(N)=O)C(=O)N[C@H](C(=O)NCC(=O)N[C@@H](CO)C(=O)N[C@@H](Cc1c[nH]cn1)C(=O)N[C@H](C(=O)N[C@@H](Cc1ccc(O)cc1)C(N)=O)[C@@H](C)O)C(C)C)[C@@H](C)O
notes: 38 residues; also called compound 44
B3: N^ε1-[(4S)-4-carboxy-4-(19-carboxynonadecanoylamino)butanoyl]-[His14,Arg17,Pro21,Pro27]-h-amylin (peptide)
peptide: K([γGlu-C20 diacid])CNTATCATQRLAHFLRHSSPNFGAIPSSTNVGSNTY-NH2
modifications: disulfide 2-7; N-terminus assumed
SMILES: CC[C@H](C)[C@H](NC(=O)[C@H](C)NC(=O)CNC(=O)[C@H](Cc1ccccc1)NC(=O)[C@H](CC(N)=O)NC(=O)[C@@H]1CCCN1C(=O)[C@H](CO)NC(=O)[C@H](CO)NC(=O)[C@H](Cc1c[nH]cn1)NC(=O)[C@H](CCCNC(=N)N)NC(=O)[C@H](CC(C)C)NC(=O)[C@H](Cc1ccccc1)NC(=O)[C@H](Cc1c[nH]cn1)NC(=O)[C@H](C)NC(=O)[C@H](CC(C)C)NC(=O)[C@H](CCCNC(=N)N)NC(=O)[C@H](CCC(N)=O)NC(=O)[C@@H](NC(=O)[C@H](C)NC(=O)[C@@H]1CSSC[C@H](NC(=O)[C@@H](N)CCCCNC(=O)CC[C@H](NC(=O)CCCCCCCCCCCCCCCCCCC(=O)O)C(=O)O)C(=O)N[C@@H](CC(N)=O)C(=O)N[C@@H]([C@@H](C)O)C(=O)N[C@@H](C)C(=O)N[C@@H]([C@@H](C)O)C(=O)N1)[C@@H](C)O)C(=O)N1CCC[C@H]1C(=O)N[C@@H](CO)C(=O)N[C@@H](CO)C(=O)N[C@H](C(=O)N[C@@H](CC(N)=O)C(=O)N[C@H](C(=O)NCC(=O)N[C@@H](CO)C(=O)N[C@@H](CC(N)=O)C(=O)N[C@H](C(=O)N[C@@H](Cc1ccc(O)cc1)C(N)=O)[C@@H](C)O)C(C)C)[C@@H](C)O
notes: also called compound 70
B4: N^ε1-[(4S)-4-carboxy-4-[[(4S)-4-carboxy-4-(19-carboxynonadecanoylamino)butanoyl]amino]butanoyl]-[Glu14,Arg17,Pro21,Pro27,Arg35]-h-amylin (peptide)
peptide: K([γGlu-γGlu-C20 diacid])CNTATCATQRLAEFLRHSSPNFGAIPSSTNVGSRTY-NH2
modifications: disulfide 2-7; N-terminus assumed
SMILES: CC[C@H](C)[C@H](NC(=O)[C@H](C)NC(=O)CNC(=O)[C@H](Cc1ccccc1)NC(=O)[C@H](CC(N)=O)NC(=O)[C@@H]1CCCN1C(=O)[C@H](CO)NC(=O)[C@H](CO)NC(=O)[C@H](Cc1c[nH]cn1)NC(=O)[C@H](CCCNC(=N)N)NC(=O)[C@H](CC(C)C)NC(=O)[C@H](Cc1ccccc1)NC(=O)[C@H](CCC(=O)O)NC(=O)[C@H](C)NC(=O)[C@H](CC(C)C)NC(=O)[C@H](CCCNC(=N)N)NC(=O)[C@H](CCC(N)=O)NC(=O)[C@@H](NC(=O)[C@H](C)NC(=O)[C@@H]1CSSC[C@H](NC(=O)[C@@H](N)CCCCNC(=O)CC[C@H](NC(=O)CC[C@H](NC(=O)CCCCCCCCCCCCCCCCCCC(=O)O)C(=O)O)C(=O)O)C(=O)N[C@@H](CC(N)=O)C(=O)N[C@@H]([C@@H](C)O)C(=O)N[C@@H](C)C(=O)N[C@@H]([C@@H](C)O)C(=O)N1)[C@@H](C)O)C(=O)N1CCC[C@H]1C(=O)N[C@@H](CO)C(=O)N[C@@H](CO)C(=O)N[C@H](C(=O)N[C@@H](CC(N)=O)C(=O)N[C@H](C(=O)NCC(=O)N[C@@H](CO)C(=O)N[C@@H](CCCNC(=N)N)C(=O)N[C@H](C(=O)N[C@@H](Cc1ccc(O)cc1)C(N)=O)[C@@H](C)O)C(C)C)[C@@H](C)O
notes: also called compound 89
B5: N^ε1-[(4S)-4-carboxy-4-[[(4S)-4-carboxy-4-(19-carboxynonadecanoylamino)butanoyl]amino]butanoyl]-[Asp14,Arg17,Pro21,Pro27,Asp35]-h-amylin (peptide)
peptide: K([γGlu-γGlu-C20 diacid])CNTATCATQRLADFLRHSSPNFGAIPSSTNVGSDTY-NH2
modifications: disulfide 2-7; N-terminus assumed
SMILES: CC[C@H](C)[C@H](NC(=O)[C@H](C)NC(=O)CNC(=O)[C@H](Cc1ccccc1)NC(=O)[C@H](CC(N)=O)NC(=O)[C@@H]1CCCN1C(=O)[C@H](CO)NC(=O)[C@H](CO)NC(=O)[C@H](Cc1c[nH]cn1)NC(=O)[C@H](CCCNC(=N)N)NC(=O)[C@H](CC(C)C)NC(=O)[C@H](Cc1ccccc1)NC(=O)[C@H](CC(=O)O)NC(=O)[C@H](C)NC(=O)[C@H](CC(C)C)NC(=O)[C@H](CCCNC(=N)N)NC(=O)[C@H](CCC(N)=O)NC(=O)[C@@H](NC(=O)[C@H](C)NC(=O)[C@@H]1CSSC[C@H](NC(=O)[C@@H](N)CCCCNC(=O)CC[C@H](NC(=O)CC[C@H](NC(=O)CCCCCCCCCCCCCCCCCCC(=O)O)C(=O)O)C(=O)O)C(=O)N[C@@H](CC(N)=O)C(=O)N[C@@H]([C@@H](C)O)C(=O)N[C@@H](C)C(=O)N[C@@H]([C@@H](C)O)C(=O)N1)[C@@H](C)O)C(=O)N1CCC[C@H]1C(=O)N[C@@H](CO)C(=O)N[C@@H](CO)C(=O)N[C@H](C(=O)N[C@@H](CC(N)=O)C(=O)N[C@H](C(=O)NCC(=O)N[C@@H](CO)C(=O)N[C@@H](CC(=O)O)C(=O)N[C@H](C(=O)N[C@@H](Cc1ccc(O)cc1)C(N)=O)[C@@H](C)O)C(C)C)[C@@H](C)O
notes: also called compound 2
B6: N^ε1-[(4S)-4-carboxy-4-[[(4S)-4-carboxy-4-(19-carboxynonadecanoylamino)butanoyl]amino]butanoyl]-[Arg17,Pro21,Pro27,His34]-h-amylin (peptide)
peptide: K([γGlu-γGlu-C20 diacid])CNTATCATQRLANFLRHSSPNFGAIPSSTNVGHNTY-NH2
modifications: disulfide 2-7; N-terminus assumed
SMILES: CC[C@H](C)[C@H](NC(=O)[C@H](C)NC(=O)CNC(=O)[C@H](Cc1ccccc1)NC(=O)[C@H](CC(N)=O)NC(=O)[C@@H]1CCCN1C(=O)[C@H](CO)NC(=O)[C@H](CO)NC(=O)[C@H](Cc1c[nH]cn1)NC(=O)[C@H](CCCNC(=N)N)NC(=O)[C@H](CC(C)C)NC(=O)[C@H](Cc1ccccc1)NC(=O)[C@H](CC(N)=O)NC(=O)[C@H](C)NC(=O)[C@H](CC(C)C)NC(=O)[C@H](CCCNC(=N)N)NC(=O)[C@H](CCC(N)=O)NC(=O)[C@@H](NC(=O)[C@H](C)NC(=O)[C@@H]1CSSC[C@H](NC(=O)[C@@H](N)CCCCNC(=O)CC[C@H](NC(=O)CC[C@H](NC(=O)CCCCCCCCCCCCCCCCCCC(=O)O)C(=O)O)C(=O)O)C(=O)N[C@@H](CC(N)=O)C(=O)N[C@@H]([C@@H](C)O)C(=O)N[C@@H](C)C(=O)N[C@@H]([C@@H](C)O)C(=O)N1)[C@@H](C)O)C(=O)N1CCC[C@H]1C(=O)N[C@@H](CO)C(=O)N[C@@H](CO)C(=O)N[C@H](C(=O)N[C@@H](CC(N)=O)C(=O)N[C@H](C(=O)NCC(=O)N[C@@H](Cc1c[nH]cn1)C(=O)N[C@@H](CC(N)=O)C(=O)N[C@H](C(=O)N[C@@H](Cc1ccc(O)cc1)C(N)=O)[C@@H](C)O)C(C)C)[C@@H](C)O
notes: also called compound 86

Numbered stars: 1 amine (or outer) side, 2 acyl side, 3 side chain; on linkers, the order of the positions; unused ones are H or OH. Bridge positions count the residues as written; N and C are the ends. Side chains are listed from the residue outwards. Ends that are not written are not given here. * marks the point of attachment. C20 diacid = O=C(O)CCCCCCCCCCCCCCCCCCC(=O)*; γGlu = O=C(O)[C@H](CCC(=O)[*:2])N[*:1]; AEEA = NCCOCCOCC(=O)O

Six molecules from US20140087995A1 (published 2014) can be followed below.

For this assay, the target named is T1, human amylin 3(a) receptor (human …). Briefly: cell-based or functional assay.
For the molecule B1, the “Ratio hCT/hAmylin funct. (hCTR EC50 over hAmylin-R EC50)” value was 16.7 and the “hAmylin-R funct. EC50 (pM)” value came out at 260 pM.

On to B2, for which the “Ratio hCT/hAmylin funct. (hCTR EC50 over hAmylin-R EC50)” value is 24 and the “hAmylin-R funct. EC50 (pM)” value was determined as 198 pM.

Take B3: the “Ratio hCT/hAmylin funct. (hCTR EC50 over hAmylin-R EC50)” value was 17.9 and the “hAmylin-R funct. EC50 (pM)” value was determined as 40 pM.

B4: the “Ratio hCT/hAmylin funct. (hCTR EC50 over hAmylin-R EC50)” value was 27.8 and the “hAmylin-R funct. EC50 (pM)” value came to 404 pM.

Consider B5, for which the “Ratio hCT/hAmylin funct. (hCTR EC50 over hAmylin-R EC50)” value stood at 16.4 and the “hAmylin-R funct. EC50 (pM)” value stood at 182 pM.

Turning to B6, the “Ratio hCT/hAmylin funct. (hCTR EC50 over hAmylin-R EC50)” value stood at 64.4 and the “hAmylin-R funct. EC50 (pM)” value came out at 298 pM.
